# Data from PMC2018633 (Nucleic Acids Research, 2007).
# T1: aCBF5 H77A variant (Pyrococcus abyssi, UniProt Q9V1A5 1-334, H77A)
# T1 sequence (looked up): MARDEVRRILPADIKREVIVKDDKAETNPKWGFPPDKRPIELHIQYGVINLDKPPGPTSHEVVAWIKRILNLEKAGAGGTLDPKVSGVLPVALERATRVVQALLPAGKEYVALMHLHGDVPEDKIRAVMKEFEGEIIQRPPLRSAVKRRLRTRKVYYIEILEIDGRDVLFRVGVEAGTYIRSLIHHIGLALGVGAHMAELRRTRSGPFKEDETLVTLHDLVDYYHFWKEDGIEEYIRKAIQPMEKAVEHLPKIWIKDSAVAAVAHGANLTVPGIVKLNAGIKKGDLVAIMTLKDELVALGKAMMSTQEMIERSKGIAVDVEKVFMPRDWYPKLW
# T2: aCBF5 R202A variant (Pyrococcus abyssi, UniProt Q9V1A5 1-334, R202A)
# T2 sequence (looked up): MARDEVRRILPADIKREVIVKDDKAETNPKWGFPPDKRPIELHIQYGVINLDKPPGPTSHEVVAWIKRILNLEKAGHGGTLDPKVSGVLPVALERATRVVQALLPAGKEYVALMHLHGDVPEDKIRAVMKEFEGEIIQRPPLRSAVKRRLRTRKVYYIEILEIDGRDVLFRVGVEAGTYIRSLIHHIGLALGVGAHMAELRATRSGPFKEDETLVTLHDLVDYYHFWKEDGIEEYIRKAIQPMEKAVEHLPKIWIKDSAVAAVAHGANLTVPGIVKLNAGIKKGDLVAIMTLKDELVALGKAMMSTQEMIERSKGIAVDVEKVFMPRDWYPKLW
# T3: aCBF5 K53A variant (Pyrococcus abyssi, UniProt Q9V1A5 1-334, K53A)
# T3 sequence (looked up): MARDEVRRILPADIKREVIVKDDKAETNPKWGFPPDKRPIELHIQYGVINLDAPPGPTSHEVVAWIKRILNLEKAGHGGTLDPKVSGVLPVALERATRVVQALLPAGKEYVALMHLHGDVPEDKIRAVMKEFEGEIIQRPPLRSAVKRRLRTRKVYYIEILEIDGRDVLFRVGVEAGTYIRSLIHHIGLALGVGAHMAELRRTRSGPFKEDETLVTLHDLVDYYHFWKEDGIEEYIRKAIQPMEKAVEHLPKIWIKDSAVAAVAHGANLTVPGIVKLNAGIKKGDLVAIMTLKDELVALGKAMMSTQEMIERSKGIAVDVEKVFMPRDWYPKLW
# T4: P. abyssi aCBF5 protein (Pyrococcus abyssi, UniProt Q9V1A5 1-334)
# T4 sequence (looked up): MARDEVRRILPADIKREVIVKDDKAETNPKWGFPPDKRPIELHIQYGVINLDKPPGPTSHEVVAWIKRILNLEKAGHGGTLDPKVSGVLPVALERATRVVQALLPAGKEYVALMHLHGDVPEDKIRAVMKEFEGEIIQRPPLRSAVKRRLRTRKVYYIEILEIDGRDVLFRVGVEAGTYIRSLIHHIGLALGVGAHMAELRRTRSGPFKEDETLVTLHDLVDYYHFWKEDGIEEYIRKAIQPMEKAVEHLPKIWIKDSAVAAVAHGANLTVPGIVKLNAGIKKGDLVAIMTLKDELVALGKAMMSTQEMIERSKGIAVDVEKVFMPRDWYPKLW
# How the values were obtained:
# [1] = molecular target: T1, aCBF5 H77A variant; assay: native gel or EMSA
# [2] = molecular target: T2, aCBF5 R202A variant; assay: native gel or EMSA
# [3] = molecular target: T3, aCBF5 K53A variant; assay: native gel or EMSA
# [4] = molecular target: T4, P. abyssi aCBF5 protein; assay: cell-based or functional assay
binder,measurement,setting,value
"P. abyssi aNOP10 protein (natural protein, Pyrococcus abyssi, UniProt Q9V0E3 1-60, looked up) MRFRIRKCPKCGRYTLKETCPVCGEKTKVAHPPRFSPEDPYGEYRRRLKRELLGIGRKEK",binding result,[1],binds
same,binding result,[2],binds
same,binding result,[3],binds
same,"level of aCBF5-tRNAAsp complexes by EMSA, with against without aNOP10",[4],~4 fold
